B1: Azoarcus group I ribozyme (parent)
chain: GUGCCUUGCGCCGGGAAACCACGCAAGGGAUGGUGUCAAAUUCGGCGAAACCUAAGCGCCCGCCCGGGCGUAUGGCAACGCCGAGCCAAGCUUCGGCGCCUGCGCCGAUGAAGGUGUAGAGACUAGACGGCACCCACCUAAGGCAAACGCUAUGGUGAAGGCAUAGUCCAGGGAGUGGCGAAAGUCACACAAACCGG

Variants of: B1
Experiment: reverse-splicing fitness (ratio to wild type); higher = more active; in vitro selection; Mg2+ level not given
How it was run: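 An in vitro group I ribozyme library with randomized positions was T7-transcribed and gel-purified. In triplicate, 10 pmol RNA in EPPS pH 7.5 was reacted with 50 pmoles of a 30-nt RNA substrate for 1 h at 37 °C across several added MgCl2 levels (1–48 mM), then stopped with EDTA. Products were reverse transcribed from a substrate-complementary primer, PCR-amplified and sequenced (HiSeq 4000). Fitness is a variant's read proportion after selection over that before, normalised to wild type.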

Q: Which reverse-splicing fitness does the source give for C82G A111G A120U A145C C169G U176G here?
A: 0.00165

Q: For C82G A111G A120U A145C C169U, which reverse-splicing fitness is on record?
A: 0.00478

Q: Which reverse-splicing fitness does the source give for C82G A111G A120U A145C C169U U176A here?
A: 0.00244

Q: With C82G A111G A120U A145C C169U U176C as the variant, how does the reverse-splicing fitness read?
A: 0.00228

Q: With C82G A111G A120U A145C C169U U176G as the variant, how does the reverse-splicing fitness read?
A: 0.00131

Q: Which reverse-splicing fitness does the source give for C82G A111G A120U A145C U176A here?
A: 0.0131

Q: With C82G A111G A120U A145C U176C as the variant, how does the reverse-splicing fitness read?
A: 0.0205

Q: With C82G A111G A120U A145C U176G as the variant, how does the reverse-splicing fitness read?
A: 0.0054

Q: Which reverse-splicing fitness does the source give for C82G A111G A120U A145G here?
A: 0.0663

Q: For C82G A111G A120U A145G C150A, which reverse-splicing fitness is on record?
A: 0.0116

Q: With C82G A111G A120U A145G C150A C169A as the variant, how does the reverse-splicing fitness read?
A: 0.00593

Q: For C82G A111G A120U A145G C150A C169A U176A, which reverse-splicing fitness is on record?
A: 0.00843

Q: Which reverse-splicing fitness does the source give for C82G A111G A120U A145G C150A C169A U176C here?
A: 0.00503

Q: Which reverse-splicing fitness does the source give for C82G A111G A120U A145G C150A C169A U176G here?
A: 0.00251

Q: For C82G A111G A120U A145G C150A C169G, which reverse-splicing fitness is on record?
A: 0.00639

Q: With C82G A111G A120U A145G C150A C169G U176A as the variant, how does the reverse-splicing fitness read?
A: 0.0128

Q: For C82G A111G A120U A145G C150A C169G U176C, which reverse-splicing fitness is on record?
A: 0.00625

Q: With C82G A111G A120U A145G C150A C169G U176G as the variant, how does the reverse-splicing fitness read?
A: 0.00219

Q: Which reverse-splicing fitness does the source give for C82G A111G A120U A145G C150A C169U here?
A: 0.00426

Q: Which reverse-splicing fitness does the source give for C82G A111G A120U A145G C150A C169U U176A here?
A: 0.00563

Q: With C82G A111G A120U A145G C150A C169U U176C as the variant, how does the reverse-splicing fitness read?
A: 0.00452

Q: With C82G A111G A120U A145G C150A C169U U176G as the variant, how does the reverse-splicing fitness read?
A: 0.00259

Q: Which reverse-splicing fitness does the source give for C82G A111G A120U A145G C150A U176A here?
A: 0.00897

Q: For C82G A111G A120U A145G C150A U176C, which reverse-splicing fitness is on record?
A: 0.00919

Q: For C82G A111G A120U A145G C150A U176G, which reverse-splicing fitness is on record?
A: 0.00391

Q: For C82G A111G A120U A145G C150G, which reverse-splicing fitness is on record?
A: 0.0102

Q: For C82G A111G A120U A145G C150G C169A, which reverse-splicing fitness is on record?
A: 0.00921

Q: With C82G A111G A120U A145G C150G C169A U176A as the variant, how does the reverse-splicing fitness read?
A: 0.0115

Q: For C82G A111G A120U A145G C150G C169A U176C, which reverse-splicing fitness is on record?
A: 0.0099

Q: With C82G A111G A120U A145G C150G C169A U176G as the variant, how does the reverse-splicing fitness read?
A: 0.00448

Q: For C82G A111G A120U A145G C150G C169G, which reverse-splicing fitness is on record?
A: 0.00722

Q: Which reverse-splicing fitness does the source give for C82G A111G A120U A145G C150G C169G U176A here?
A: 0.00894

Q: Which reverse-splicing fitness does the source give for C82G A111G A120U A145G C150G C169G U176C here?
A: 0.00607

Q: For C82G A111G A120U A145G C150G C169G U176G, which reverse-splicing fitness is on record?
A: 0.00372

Q: With C82G A111G A120U A145G C150G C169U as the variant, how does the reverse-splicing fitness read?
A: 0.00737

Q: Which reverse-splicing fitness does the source give for C82G A111G A120U A145G C150G C169U U176A here?
A: 0.00708

Q: With C82G A111G A120U A145G C150G C169U U176C as the variant, how does the reverse-splicing fitness read?
A: 0.009

Q: Which reverse-splicing fitness does the source give for C82G A111G A120U A145G C150G C169U U176G here?
A: 0.00375

Q: With C82G A111G A120U A145G C150G U176A as the variant, how does the reverse-splicing fitness read?
A: 0.00561

Q: Which reverse-splicing fitness does the source give for C82G A111G A120U A145G C150G U176C here?
A: 0.00834

Q: Which reverse-splicing fitness does the source give for C82G A111G A120U A145G C150G U176G here?
A: 0.00375

Q: Which reverse-splicing fitness does the source give for C82G A111G A120U A145G C150U here?
A: 0.0498

Q: Which reverse-splicing fitness does the source give for C82G A111G A120U A145G C150U C169A here?
A: 0.00681

Q: For C82G A111G A120U A145G C150U C169A U176A, which reverse-splicing fitness is on record?
A: 0.00839

Q: With C82G A111G A120U A145G C150U C169A U176C as the variant, how does the reverse-splicing fitness read?
A: 0.00519

Q: For C82G A111G A120U A145G C150U C169A U176G, which reverse-splicing fitness is on record?
A: 0.00254

Q: With C82G A111G A120U A145G C150U C169G as the variant, how does the reverse-splicing fitness read?
A: 0.00707

Q: For C82G A111G A120U A145G C150U C169G U176A, which reverse-splicing fitness is on record?
A: 0.0105

Q: Which reverse-splicing fitness does the source give for C82G A111G A120U A145G C150U C169G U176C here?
A: 0.00595

Q: For C82G A111G A120U A145G C150U C169G U176G, which reverse-splicing fitness is on record?
A: 0.00241

Q: Which reverse-splicing fitness does the source give for C82G A111G A120U A145G C150U C169U here?
A: 0.00611

Q: For C82G A111G A120U A145G C150U C169U U176A, which reverse-splicing fitness is on record?
A: 0.00467

Q: Which reverse-splicing fitness does the source give for C82G A111G A120U A145G C150U C169U U176C here?
A: 0.00574

Q: For C82G A111G A120U A145G C150U C169U U176G, which reverse-splicing fitness is on record?
A: 0.00229

Q: With C82G A111G A120U A145G C150U U176A as the variant, how does the reverse-splicing fitness read?
A: 0.0125

Q: For C82G A111G A120U A145G C150U U176C, which reverse-splicing fitness is on record?
A: 0.0196

Q: For C82G A111G A120U A145G C150U U176G, which reverse-splicing fitness is on record?
A: 0.00429

Q: With C82G A111G A120U A145G C169A as the variant, how does the reverse-splicing fitness read?
A: 0.00466

Q: For C82G A111G A120U A145G C169A U176A, which reverse-splicing fitness is on record?
A: 0.00574

Q: Which reverse-splicing fitness does the source give for C82G A111G A120U A145G C169A U176C here?
A: 0.00535

Q: For C82G A111G A120U A145G C169A U176G, which reverse-splicing fitness is on record?
A: 0.00176

Q: Which reverse-splicing fitness does the source give for C82G A111G A120U A145G C169G here?
A: 0.00538

Q: For C82G A111G A120U A145G C169G U176A, which reverse-splicing fitness is on record?
A: 0.00491

Q: For C82G A111G A120U A145G C169G U176C, which reverse-splicing fitness is on record?
A: 0.00531

Q: For C82G A111G A120U A145G C169G U176G, which reverse-splicing fitness is on record?
A: 0.00184

Q: For C82G A111G A120U A145G C169U, which reverse-splicing fitness is on record?
A: 0.00538

Q: Which reverse-splicing fitness does the source give for C82G A111G A120U A145G C169U U176A here?
A: 0.00415

Q: With C82G A111G A120U A145G C169U U176C as the variant, how does the reverse-splicing fitness read?
A: 0.00485

Q: With C82G A111G A120U A145G C169U U176G as the variant, how does the reverse-splicing fitness read?
A: 0.00164

Q: Which reverse-splicing fitness does the source give for C82G A111G A120U A145G U176A here?
A: 0.0143

Q: With C82G A111G A120U A145G U176C as the variant, how does the reverse-splicing fitness read?
A: 0.0283

Q: Which reverse-splicing fitness does the source give for C82G A111G A120U A145G U176G here?
A: 0.00435

Q: For C82G A111G A120U A145U, which reverse-splicing fitness is on record?
A: 0.0713

Q: For C82G A111G A120U A145U C150A, which reverse-splicing fitness is on record?
A: 0.00764

Q: Which reverse-splicing fitness does the source give for C82G A111G A120U A145U C150A C169A here?
A: 0.00193

Q: For C82G A111G A120U A145U C150A C169A U176A, which reverse-splicing fitness is on record?
A: 0.00256

Q: For C82G A111G A120U A145U C150A C169A U176C, which reverse-splicing fitness is on record?
A: 0.00223

Q: With C82G A111G A120U A145U C150A C169A U176G as the variant, how does the reverse-splicing fitness read?
A: 0.00211

Q: For C82G A111G A120U A145U C150A C169G, which reverse-splicing fitness is on record?
A: 0.0027

Q: For C82G A111G A120U A145U C150A C169G U176A, which reverse-splicing fitness is on record?
A: 0.00229

Q: Which reverse-splicing fitness does the source give for C82G A111G A120U A145U C150A C169G U176C here?
A: 0.00301

Q: Which reverse-splicing fitness does the source give for C82G A111G A120U A145U C150A C169G U176G here?
A: 0.00181

Q: Which reverse-splicing fitness does the source give for C82G A111G A120U A145U C150A C169U here?
A: 0.0024

From the RNAGym collection of RNA variant scans (doi:10.1093/molbev/msab373)
